Consider two molecules from US8071348B2, “Protein tyrosine phosphatase substrate-trapping double mutant and uses thereof” (Albert Einstein College of Medicine of Yeshiva University, priority 2002, dated 2011).

Read-outs that look alike come from different tables or passages of the source.

In general, Km refers to the substrate concentration at which the rate is half of its maximum. The term Kd denotes the concentration at which binding is half-saturated.

For data set [1], the target named is T1, EGFR^988-998 peptide, DADEpYLIPQQG (Homo sapiens, UniProt P18031, Q262A).
T1 construct: The catalytic domain of PTP1B (residues 1 to 321) was used for in vitro study; made in house; host or cells: E. coli (pT7-7 plasmids)
T1 sequence (P18031 1-321 Q262A): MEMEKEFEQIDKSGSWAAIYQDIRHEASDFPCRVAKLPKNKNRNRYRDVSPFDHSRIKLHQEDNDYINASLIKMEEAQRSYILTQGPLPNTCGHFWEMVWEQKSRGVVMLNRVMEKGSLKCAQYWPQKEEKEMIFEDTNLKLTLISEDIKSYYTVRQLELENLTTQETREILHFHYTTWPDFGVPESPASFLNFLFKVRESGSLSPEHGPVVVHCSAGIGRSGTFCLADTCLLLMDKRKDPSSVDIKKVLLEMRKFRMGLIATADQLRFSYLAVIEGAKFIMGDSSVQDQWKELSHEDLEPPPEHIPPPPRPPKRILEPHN
The note with it: cited from earlier work.

The conditions of data set [2]: pNPP as substrate, cited from earlier work.
For the next data set, the system named is EGF receptor. As to the kind of experiment: Substrate protection: EGF receptor tyrosine phosphorylation in COS1 cells expressing PTP1B forms (anti-pTyr Western blot). It is filed as cell-based, Monkey. The note with it: COS1 cell lysates, anti-pTyr immunoblot (FIG. 4). Here is the method: FIG. 4 sets forth Western blots (WB) that show the level of tyrosine phosphorylation in the epidermal growth factor receptor (EGFR) upon expression of the wild-type and mutant PTP1Bs (4 μg plasmid/60 mm dish) in COS1 cells. Samples (50 μg total protein) were taken from the lysates of COS1 cells transfected with 4 μg of pJ3H plasmids expressing HA-tagged wild-type PTP1B, D181A, C215S, D181A/Q262A, or D181A/C215S. These samples were loaded into each lane for SDS-PAGE electrophoresis, and transferred onto a nitrocellulose membrane. The proteins on the membrane were first immunoblotted with anti-pTyr HRP conjugate (upper panel). The membrane was then stripped and re-probed with anti-hemagglutinin (anti-HA) HRP conjugate (lower panel).
The hemagglutinin-tagged (HA-tagged) full-length human wild-type PTP1B in pJ3H expression vector was a gift from Dr. Chemoff (30). The HA-tagged PTP1B mutants, C215S, D181A, D181A/C215S, and D181A/Q262A, were generated by PCR reactions, according to the standard procedure of the Quick-Change™ site-directed mutagenesis kit (Stratagene), using pJ3H-HA-PTP1B as a template. All mutations were verified by DNA sequencing.
Monkey kidney COS1 cells (ATCC: CRL-1650) were maintained in Dulbecco's modified Eagle's minimum essential medium (DMEM), supplemented with 10% fetal bovine serum (Life Technologies, Inc.), penicillin (50 units/ml), streptomycin (50 μg/ml), and L-glutamine (2 mM) under a humidified atmosphere containing 5% CO2. In transient transfection experiments, COS1 cells were inoculated at a density of 2×10^5 cells/60-mm dish, and grown overnight in DMEM containing 10% fetal bovine serum. Transfection was performed using LipoTAXI^R according to the manufacturer's recommendations (Stratagene, Cedar Creek, Tex.). Each transfection assay included 4 μg of purified DNA mixed with LipoTAXI^R in a 1:5 DNA:lipid ratio per 60-mm dish of cells. Following transfection, the cells were exchanged to normal culture medium, and maintained for 44 to 48 h at 37° C. and 5% CO2. The efficiency of transfection, as assessed by 5-bromo-4-chloro-3-indolyl-β-D galactoside (X-Gal) staining of pCMV-β-gal-transfected (β-Gal staining kit, Invitrogen) COS cells, was 25%.
The transfected cells (treated with or without EGF) were lysed with “lysis buffer” containing 50 mM Tris-HC1 (pH 7.5), 5 mM EDTA, 150 mM NaCl, 10 mM sodium phosphate, 10 mM sodium fluoride, 5 mM iodoacetic acid, 1 mM benzamidine, 1% Triton X-100, 10 μg/ml leupeptin, and 5 μg/ml Aprotinin. Lysate protein concentration was estimated using Bio-Rad protein assay reagent (Bio-Rad, Hercules, Calif.).
For immunoprecipitation, 1 mg of cell lysate was immunoprecipitated overnight with 30 μl of agarose-conjugated anti-hemagglutinin antibody at 4° C. Immunocomplexes were washed four times with the cell lysis buffer, and boiled for 5 min in SDS-PAGE sample buffer. Proteins in the cell lysate were separated by 8% SDS-PAGE under reducing conditions, according to the method of Laemmli (31), followed by blotting onto nitrocellulose membranes (Protran, Schleicher & Schuell). The nitrocellulose membranes were blocked with 5% non-fat dry milk in Tris-buffered saline/Tween (TBST) buffer (20 mM Tris-HC1, 150 mM NaCl, 0.1% Tween-20; pH 7.6) for 1 h at 25° C.
Thereafter, blots were incubated overnight with primary antibodies diluted in TBST containing 5% non-fat dry milk at 4° C. […]
For orientation: In western blotting, separated proteins are transferred to a membrane and probed.

A short description of data set [3]: Kinetic constants for PTP1B-catalyzed hydrolysis of pNPP. It is filed as biochemical. The note with it: pNPP as substrate; 25° C. and pH 7.0. From the text:
(§1) The catalytic domain of PTP1B (residues 1 to 321) was used for in vitro study. PTP1B mutants, C215S, D181A, and Q262A, were described previously (9, 25, 26). PTP1B double mutants, D181A/C215S and C215S/Q262A, were generated by PCR reactions, according to the standard procedure of the Quick-Change™ site-directed mutagenesis kit (Stratagene), using pT7-7/PTP1B/C215S as a template. PTP1B double mutants, D181A/C215E and D181A/Q262A, were generated by similar PCR procedures, using pT7-7/PTP1B/D181A as a template. The recombinant wild-type and mutant PTP1Bs were expressed in E. coli, and purified to homogeneity as described (25, 27). Protein concentration was determined from absorbance measurement at 280 nm, using an absorbance coefficient of 1.24 for 1 mg/ml PTP1B.
PTP activity was assayed at 25° C. and pH 7.0, in a reaction mixture (0.2 ml) containing pNPP concentrations ranging from 0.2 to 5 Km. The following buffered solution was used for activity measurements: pH 7.0, 50 mM 3,3-dimethylglutarate, 1 mM EDTA; the ionic strength was 0.15 M, as adjusted by addition of NaCl. Initial rate measurements for the enzyme-catalyzed hydrolysis of pNPP were conducted as previously described (26). Michaelis-Menten kinetic parameters were determined from a direct fit of the data to the Michaelis-Menten equation, using the nonlinear regression program, KINETASYST (Intellikinetics, State College, Pa.).

Data set [4] has as its system EGFR^988-998 peptide, DADEpYLIPQQG. In words: Kinetic constants for PTP1B-catalyzed hydrolysis of pTyr-containing EGFR988-998 peptide. Type of data set: biochemical. The note with it: EGFR988-998 peptide as substrate; 25° C. and pH 7.0.
Text: as §1
All assays were performed at 25° C. in buffer (pH 7.0, ionic strength=0.15 M) containing 50 mM 3,3-dimethylglutarate and 1 mM EDTA. A continuous spectrophotometric assay, previously described (28), was employed to determine kcat and Km for the pTyr-containing peptides. The dephosphorylation reaction was monitored by either an increase in absorbance at 282 nm, or an increase in fluorescence at 305 nm. Fluorometric and absorbance determinations were performed on a Perkin-Elmer LS50B fluorometer and a Perkin-Elmer Lambda 14 spectrophotometer, respectively. The instruments were equipped with a water-jacketed cell holder, permitting maintenance of the reaction mixture at the desired temperature (25° C.).

Data set [5] addresses T2, EGFR 988-998 peptide DADEpYLIPQQG.
T2 chain: DADEXLIPQQG

Data set [6] has as its target Ac-Asp-Ala-Asp-Glu-F2Pmp-Leu-NH2. The note with it: ITC, 25° C. and pH 7.0; data from (24); cited from earlier work. (ITC needs no label: the signal is the heat of the interaction.)
Setting [7] is: EGFR988-998 peptide as substrate, 30° C. and pH 7.0 (26).
[8] abbreviates: hydrolysis of EGFR988-998 peptide and phosphorylated lysozyme, previous kinetic studies (18, 26).

B1: Q262A: PTP1B mutant, Gln262 replaced by Ala, described previously (protein, UniProt P18031 1-435, looked up, variant Q262A)
Tyrosine-protein phosphatase …: MEMEKEFEQIDKSGSWAAIYQDIRHEASDFPCRVAKLPKNKNRNRYRDVSPFDHSRIKLHQEDNDYINASLIKMEEAQRSYILTQGPLPNTCGHFWEMVWEQKSRGVVMLNRVMEKGSLKCAQYWPQKEEKEMIFEDTNLKLTLISEDIKSYYTVRQLELENLTTQETREILHFHYTTWPDFGVPESPASFLNFLFKVRESGSLSPEHGPVVVHCSAGIGRSGTFCLADTCLLLMDKRKDPSSVDIKKVLLEMRKFRMGLIATADQLRFSYLAVIEGAKFIMGDSSVQDQWKELSHEDLEPPPEHIPPPPRPPKRILEPHNGKCREFFPNHQWVKEETQEDKDCPIKEEKGSPLNAAPYGIESMSQDTEVRSRVVGGSLRGAQAASPAKGEPSLPEKDEDHALSYWKPFLVNMCVATVLTAGAYLCYRFLFNSNT
Turning to B1, the Michaelis constant (Km) in data set [1] (setting [7]) was 0.35 ± 0.05 µM; in data set [2] (30° C. and pH 7.0 (26)) it was 58 ± 6 µM. Moreover, the kcat in data set [1] (setting [7]) was 0.29 ± 0.002 s^−; in data set [2] (30° C. and pH 7.0 (26)), 0.21 ± 0.01 s⁻¹. For the same molecule, the “fold reduction of kcat” value was 150 fold in data set [1] (EGFR988-998 peptide as substrate, (26)); 100 fold in data set [1] (setting [8]); 80 fold in data set [2] ((26)). Moreover, the “fold decrease in Km” value is listed as 7.4 fold in data set [1] (EGFR988-998 peptide as substrate, shown previously (26)) and 38 fold in data set [2] (shown previously (26)). The “fold reduction of kcat/Km” value in data set [1] (setting [8]) is given as 10 fold.

B2: wild-type PTP1B, catalytic domain (residues 1 to 321) (protein)
chain: MEMEKEFEQIDKSGSWAAIYQDIRHEASDFPCRVAKLPKNKNRNRYRDVSPFDHSRIKLHQEDNDYINASLIKMEEAQRSYILTQGPLPNTCGHFWEMVWEQKSRGVVMLNRVMEKGSLKCAQYWPQKEEKEMIFEDTNLKLTLISEDIKSYYTVRQLELENLTTQETREILHFHYTTWPDFGVPESPASFLNFLFKVRESGSLSPEHGPVVVHCSAGIGRSGTFCLADTCLLLMDKRKDPSSVDIKKVLLEMRKFRMGLIQTADQLRFSYLAVIEGAKFIMGDSSVQDQWKELSHEDLEPPPEHIPPPPRPPKRILEPHN
With B2, the “level of pTyr in the EGF receptor / enhancement of EGF receptor phosphorylation” value in the data set with EGF receptor is recorded as “comparable to that in the vector control”. Besides, in data set [3], the Michaelis constant (Km) was found to be 2400 ± 200 µM and the kcat is 9.8 ± 0.5 s⁻¹. Also, in data set [4], the Km was found to be 2.6 ± 0.3 µM and the kcat is given as 30 ± 1 s^−. Moreover, the Km (hydrolysis of the EGFR 988-998 peptide, 25 C, pH 7.0) in data set [5] worked out at 2.6 µM. Besides, the dissociation constant Kd in data set [6] was 240 ± 50 nM.
